Results reported in patent US20200024322A1 (Eli Lilly, published 2020).
Numbered stars: 1 amine (or outer) side, 2 acyl side, 3 side chain; on linkers, the order of the positions; unused ones are H or OH. Square brackets hold non-standard residues; d marks the D form. Side chains are listed from the residue outwards. Ends that are not written are not given here. * marks the point of attachment. C20 diacid = O=C(O)CCCCCCCCCCCCCCCCCCC(=O)*; γGlu = O=C(O)[C@H](CCC(=O)[*:2])N[*:1]; AEEA = NCCOCCOCC(=O)O; Aib = CC(C)(N)C(=O)O

T1: human GIP receptor (human, UniProt P48546 22-466)
T1 construct: whole, on cells; Used as crude membranes of stably transfected CHO cells; also called hGIPR
T1 sequence (looked up): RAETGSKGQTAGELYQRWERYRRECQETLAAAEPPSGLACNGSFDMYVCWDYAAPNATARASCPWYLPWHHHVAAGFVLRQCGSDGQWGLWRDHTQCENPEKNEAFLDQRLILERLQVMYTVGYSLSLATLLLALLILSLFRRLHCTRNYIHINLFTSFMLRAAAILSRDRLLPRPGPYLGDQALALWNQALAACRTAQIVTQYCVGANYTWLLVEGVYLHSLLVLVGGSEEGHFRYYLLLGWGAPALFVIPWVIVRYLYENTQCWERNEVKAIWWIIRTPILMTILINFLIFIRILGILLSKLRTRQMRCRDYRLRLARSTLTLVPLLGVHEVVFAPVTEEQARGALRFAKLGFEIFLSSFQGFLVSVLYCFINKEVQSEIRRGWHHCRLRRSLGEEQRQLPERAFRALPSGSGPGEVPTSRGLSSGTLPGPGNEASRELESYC

B1: Example 41 (peptide)
peptide: Y[Aib]EGTFTSDYSILLDKIAQ[Aib]AFIEYLIEGGPK([AEEA-AEEA-γGlu-C20 diacid])SGAPPPS-NH2
modifications: N-terminus assumed
SMILES: CC[C@H](C)[C@H](NC(=O)[C@H](CCCCN)NC(=O)[C@H](CC(=O)O)NC(=O)[C@H](CC(C)C)NC(=O)[C@H](CC(C)C)NC(=O)[C@@H](NC(=O)[C@H](CO)NC(=O)[C@H](Cc1ccc(O)cc1)NC(=O)[C@H](CC(=O)O)NC(=O)[C@H](CO)NC(=O)[C@@H](NC(=O)[C@H](Cc1ccccc1)NC(=O)[C@@H](NC(=O)CNC(=O)[C@H](CCC(=O)O)NC(=O)C(C)(C)NC(=O)[C@@H](N)Cc1ccc(O)cc1)[C@@H](C)O)[C@@H](C)O)[C@@H](C)CC)C(=O)N[C@@H](C)C(=O)N[C@@H](CCC(N)=O)C(=O)NC(C)(C)C(=O)N[C@@H](C)C(=O)N[C@@H](Cc1ccccc1)C(=O)N[C@H](C(=O)N[C@@H](CCC(=O)O)C(=O)N[C@@H](Cc1ccc(O)cc1)C(=O)N[C@@H](CC(C)C)C(=O)N[C@H](C(=O)N[C@@H](CCC(=O)O)C(=O)NCC(=O)NCC(=O)N1CCC[C@H]1C(=O)N[C@@H](CCCCNC(=O)COCCOCCNC(=O)COCCOCCNC(=O)CC[C@H](NC(=O)CCCCCCCCCCCCCCCCCCC(=O)O)C(=O)O)C(=O)N[C@@H](CO)C(=O)NCC(=O)N[C@@H](C)C(=O)N1CCC[C@H]1C(=O)N1CCC[C@H]1C(=O)N1CCC[C@H]1C(=O)N[C@@H](CO)C(N)=O)[C@@H](C)CC)[C@@H](C)CC
B2: Example 46 (peptide)
peptide: Y[Aib]EGTFTSDYSILLDKIAQ[Aib]AFIEYLIEGGPSSGAPK([AEEA-AEEA-γGlu-C20 diacid])PS-NH2
modifications: N-terminus assumed
SMILES: CC[C@H](C)[C@H](NC(=O)[C@H](CCCCN)NC(=O)[C@H](CC(=O)O)NC(=O)[C@H](CC(C)C)NC(=O)[C@H](CC(C)C)NC(=O)[C@@H](NC(=O)[C@H](CO)NC(=O)[C@H](Cc1ccc(O)cc1)NC(=O)[C@H](CC(=O)O)NC(=O)[C@H](CO)NC(=O)[C@@H](NC(=O)[C@H](Cc1ccccc1)NC(=O)[C@@H](NC(=O)CNC(=O)[C@H](CCC(=O)O)NC(=O)C(C)(C)NC(=O)[C@@H](N)Cc1ccc(O)cc1)[C@@H](C)O)[C@@H](C)O)[C@@H](C)CC)C(=O)N[C@@H](C)C(=O)N[C@@H](CCC(N)=O)C(=O)NC(C)(C)C(=O)N[C@@H](C)C(=O)N[C@@H](Cc1ccccc1)C(=O)N[C@H](C(=O)N[C@@H](CCC(=O)O)C(=O)N[C@@H](Cc1ccc(O)cc1)C(=O)N[C@@H](CC(C)C)C(=O)N[C@H](C(=O)N[C@@H](CCC(=O)O)C(=O)NCC(=O)NCC(=O)N1CCC[C@H]1C(=O)N[C@@H](CO)C(=O)N[C@@H](CO)C(=O)NCC(=O)N[C@@H](C)C(=O)N1CCC[C@H]1C(=O)N[C@@H](CCCCNC(=O)COCCOCCNC(=O)COCCOCCNC(=O)CC[C@H](NC(=O)CCCCCCCCCCCCCCCCCCC(=O)O)C(=O)O)C(=O)N1CCC[C@H]1C(=O)N[C@@H](CO)C(N)=O)[C@@H](C)CC)[C@@H](C)CC
B3: Example 42 (peptide)
peptide: Y[Aib]EGTFTSDYSILLDKIAQ[Aib]AFIEYLIEGGPSK([AEEA-AEEA-γGlu-C20 diacid])GAPPPS-NH2
modifications: N-terminus assumed
SMILES: CC[C@H](C)[C@H](NC(=O)[C@H](CCCCN)NC(=O)[C@H](CC(=O)O)NC(=O)[C@H](CC(C)C)NC(=O)[C@H](CC(C)C)NC(=O)[C@@H](NC(=O)[C@H](CO)NC(=O)[C@H](Cc1ccc(O)cc1)NC(=O)[C@H](CC(=O)O)NC(=O)[C@H](CO)NC(=O)[C@@H](NC(=O)[C@H](Cc1ccccc1)NC(=O)[C@@H](NC(=O)CNC(=O)[C@H](CCC(=O)O)NC(=O)C(C)(C)NC(=O)[C@@H](N)Cc1ccc(O)cc1)[C@@H](C)O)[C@@H](C)O)[C@@H](C)CC)C(=O)N[C@@H](C)C(=O)N[C@@H](CCC(N)=O)C(=O)NC(C)(C)C(=O)N[C@@H](C)C(=O)N[C@@H](Cc1ccccc1)C(=O)N[C@H](C(=O)N[C@@H](CCC(=O)O)C(=O)N[C@@H](Cc1ccc(O)cc1)C(=O)N[C@@H](CC(C)C)C(=O)N[C@H](C(=O)N[C@@H](CCC(=O)O)C(=O)NCC(=O)NCC(=O)N1CCC[C@H]1C(=O)N[C@@H](CO)C(=O)N[C@@H](CCCCNC(=O)COCCOCCNC(=O)COCCOCCNC(=O)CC[C@H](NC(=O)CCCCCCCCCCCCCCCCCCC(=O)O)C(=O)O)C(=O)NCC(=O)N[C@@H](C)C(=O)N1CCC[C@H]1C(=O)N1CCC[C@H]1C(=O)N1CCC[C@H]1C(=O)N[C@@H](CO)C(N)=O)[C@@H](C)CC)[C@@H](C)CC
B4: Example 44 (peptide)
peptide: Y[Aib]EGTFTSDYSILLDKIAQ[Aib]AFIEYLIEGGPSSGK([AEEA-AEEA-γGlu-C20 diacid])PPPS-NH2
modifications: N-terminus assumed
SMILES: CC[C@H](C)[C@H](NC(=O)[C@H](CCCCN)NC(=O)[C@H](CC(=O)O)NC(=O)[C@H](CC(C)C)NC(=O)[C@H](CC(C)C)NC(=O)[C@@H](NC(=O)[C@H](CO)NC(=O)[C@H](Cc1ccc(O)cc1)NC(=O)[C@H](CC(=O)O)NC(=O)[C@H](CO)NC(=O)[C@@H](NC(=O)[C@H](Cc1ccccc1)NC(=O)[C@@H](NC(=O)CNC(=O)[C@H](CCC(=O)O)NC(=O)C(C)(C)NC(=O)[C@@H](N)Cc1ccc(O)cc1)[C@@H](C)O)[C@@H](C)O)[C@@H](C)CC)C(=O)N[C@@H](C)C(=O)N[C@@H](CCC(N)=O)C(=O)NC(C)(C)C(=O)N[C@@H](C)C(=O)N[C@@H](Cc1ccccc1)C(=O)N[C@H](C(=O)N[C@@H](CCC(=O)O)C(=O)N[C@@H](Cc1ccc(O)cc1)C(=O)N[C@@H](CC(C)C)C(=O)N[C@H](C(=O)N[C@@H](CCC(=O)O)C(=O)NCC(=O)NCC(=O)N1CCC[C@H]1C(=O)N[C@@H](CO)C(=O)N[C@@H](CO)C(=O)NCC(=O)N[C@@H](CCCCNC(=O)COCCOCCNC(=O)COCCOCCNC(=O)CC[C@H](NC(=O)CCCCCCCCCCCCCCCCCCC(=O)O)C(=O)O)C(=O)N1CCC[C@H]1C(=O)N1CCC[C@H]1C(=O)N1CCC[C@H]1C(=O)N[C@@H](CO)C(N)=O)[C@@H](C)CC)[C@@H](C)CC
B5: Example 43 (peptide)
peptide: Y[Aib]EGTFTSDYSILLDKIAQ[Aib]AFIEYLIEGGPSSK([AEEA-AEEA-γGlu-C20 diacid])APPPS-NH2
modifications: N-terminus assumed
SMILES: CC[C@H](C)[C@H](NC(=O)[C@H](CCCCN)NC(=O)[C@H](CC(=O)O)NC(=O)[C@H](CC(C)C)NC(=O)[C@H](CC(C)C)NC(=O)[C@@H](NC(=O)[C@H](CO)NC(=O)[C@H](Cc1ccc(O)cc1)NC(=O)[C@H](CC(=O)O)NC(=O)[C@H](CO)NC(=O)[C@@H](NC(=O)[C@H](Cc1ccccc1)NC(=O)[C@@H](NC(=O)CNC(=O)[C@H](CCC(=O)O)NC(=O)C(C)(C)NC(=O)[C@@H](N)Cc1ccc(O)cc1)[C@@H](C)O)[C@@H](C)O)[C@@H](C)CC)C(=O)N[C@@H](C)C(=O)N[C@@H](CCC(N)=O)C(=O)NC(C)(C)C(=O)N[C@@H](C)C(=O)N[C@@H](Cc1ccccc1)C(=O)N[C@H](C(=O)N[C@@H](CCC(=O)O)C(=O)N[C@@H](Cc1ccc(O)cc1)C(=O)N[C@@H](CC(C)C)C(=O)N[C@H](C(=O)N[C@@H](CCC(=O)O)C(=O)NCC(=O)NCC(=O)N1CCC[C@H]1C(=O)N[C@@H](CO)C(=O)N[C@@H](CO)C(=O)N[C@@H](CCCCNC(=O)COCCOCCNC(=O)COCCOCCNC(=O)CC[C@H](NC(=O)CCCCCCCCCCCCCCCCCCC(=O)O)C(=O)O)C(=O)N[C@@H](C)C(=O)N1CCC[C@H]1C(=O)N1CCC[C@H]1C(=O)N1CCC[C@H]1C(=O)N[C@@H](CO)C(N)=O)[C@@H](C)CC)[C@@H](C)CC
B6: Example 45 (peptide)
peptide: Y[Aib]EGTFTSDYSILLDKIAQ[Aib]AFIEYLIEGGPSSGAK([AEEA-AEEA-γGlu-C20 diacid])PPS-NH2
modifications: N-terminus assumed
SMILES: CC[C@H](C)[C@H](NC(=O)[C@H](CCCCN)NC(=O)[C@H](CC(=O)O)NC(=O)[C@H](CC(C)C)NC(=O)[C@H](CC(C)C)NC(=O)[C@@H](NC(=O)[C@H](CO)NC(=O)[C@H](Cc1ccc(O)cc1)NC(=O)[C@H](CC(=O)O)NC(=O)[C@H](CO)NC(=O)[C@@H](NC(=O)[C@H](Cc1ccccc1)NC(=O)[C@@H](NC(=O)CNC(=O)[C@H](CCC(=O)O)NC(=O)C(C)(C)NC(=O)[C@@H](N)Cc1ccc(O)cc1)[C@@H](C)O)[C@@H](C)O)[C@@H](C)CC)C(=O)N[C@@H](C)C(=O)N[C@@H](CCC(N)=O)C(=O)NC(C)(C)C(=O)N[C@@H](C)C(=O)N[C@@H](Cc1ccccc1)C(=O)N[C@H](C(=O)N[C@@H](CCC(=O)O)C(=O)N[C@@H](Cc1ccc(O)cc1)C(=O)N[C@@H](CC(C)C)C(=O)N[C@H](C(=O)N[C@@H](CCC(=O)O)C(=O)NCC(=O)NCC(=O)N1CCC[C@H]1C(=O)N[C@@H](CO)C(=O)N[C@@H](CO)C(=O)NCC(=O)N[C@@H](C)C(=O)N[C@@H](CCCCNC(=O)COCCOCCNC(=O)COCCOCCNC(=O)CC[C@H](NC(=O)CCCCCCCCCCCCCCCCCCC(=O)O)C(=O)O)C(=O)N1CCC[C@H]1C(=O)N1CCC[C@H]1C(=O)N[C@@H](CO)C(N)=O)[C@@H](C)CC)[C@@H](C)CC

These binders were tested against T1, human GIP receptor (assay: SPA, [125I]-GIP displacement, hGIPR membranes).

Binder	Ki [nM]
B1	0.0551
B2	0.0852
B3	0.0514
B4	0.0516
B5	0.101
B6	0.0463

What follows are binders tested against T2, human glucagon receptor (human, UniProt P47871 26-477) (assay: SPA, [125I]-Gcg displacement, hGcgR membranes).
T2 construct: whole, on cells; Used as crude membranes of stably transfected HEK293 cells; also called hGcgR; hGLcgR
T2 sequence (P47871 26-477): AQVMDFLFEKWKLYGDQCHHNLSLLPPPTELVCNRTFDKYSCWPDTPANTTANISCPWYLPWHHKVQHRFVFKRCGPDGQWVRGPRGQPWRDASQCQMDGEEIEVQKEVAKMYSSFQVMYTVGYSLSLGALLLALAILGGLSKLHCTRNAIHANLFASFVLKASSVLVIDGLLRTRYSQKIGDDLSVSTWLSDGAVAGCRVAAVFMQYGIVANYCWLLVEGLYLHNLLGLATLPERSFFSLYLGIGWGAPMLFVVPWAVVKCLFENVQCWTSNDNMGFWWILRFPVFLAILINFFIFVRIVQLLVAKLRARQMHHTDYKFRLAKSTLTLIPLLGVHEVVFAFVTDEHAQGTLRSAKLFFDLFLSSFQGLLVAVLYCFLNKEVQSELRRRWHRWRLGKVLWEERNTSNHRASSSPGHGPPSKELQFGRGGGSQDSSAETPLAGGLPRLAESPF

Binder	Ki [nM]
B1	165
B2	133
B3	160
B4	121
B5	134
B6	11.1

Each binder was assayed against T3, human GLP-1 receptor (human, UniProt P43220 24-463) (assay: SPA, [125I]-GLP-1 displacement, hGLP-1R membranes).
T3 construct: whole, on cells; Used as crude membranes of stably transfected HEK293 cells; also called hGLP1R; hGLP-1R

Binder	Ki [nM]
B1	13.4
B2	13.4
B3	13.2
B4	10.6
B5	11.8
B6	5.65
